Patent US20120059148 (published 2012)

Biological target: LDL receptor (cell surface) (UniProt P01130)
Assay: other, cell binding, total binding double reciprocal plot

Sequence of LDL receptor (cell surface) (P01130 22-788): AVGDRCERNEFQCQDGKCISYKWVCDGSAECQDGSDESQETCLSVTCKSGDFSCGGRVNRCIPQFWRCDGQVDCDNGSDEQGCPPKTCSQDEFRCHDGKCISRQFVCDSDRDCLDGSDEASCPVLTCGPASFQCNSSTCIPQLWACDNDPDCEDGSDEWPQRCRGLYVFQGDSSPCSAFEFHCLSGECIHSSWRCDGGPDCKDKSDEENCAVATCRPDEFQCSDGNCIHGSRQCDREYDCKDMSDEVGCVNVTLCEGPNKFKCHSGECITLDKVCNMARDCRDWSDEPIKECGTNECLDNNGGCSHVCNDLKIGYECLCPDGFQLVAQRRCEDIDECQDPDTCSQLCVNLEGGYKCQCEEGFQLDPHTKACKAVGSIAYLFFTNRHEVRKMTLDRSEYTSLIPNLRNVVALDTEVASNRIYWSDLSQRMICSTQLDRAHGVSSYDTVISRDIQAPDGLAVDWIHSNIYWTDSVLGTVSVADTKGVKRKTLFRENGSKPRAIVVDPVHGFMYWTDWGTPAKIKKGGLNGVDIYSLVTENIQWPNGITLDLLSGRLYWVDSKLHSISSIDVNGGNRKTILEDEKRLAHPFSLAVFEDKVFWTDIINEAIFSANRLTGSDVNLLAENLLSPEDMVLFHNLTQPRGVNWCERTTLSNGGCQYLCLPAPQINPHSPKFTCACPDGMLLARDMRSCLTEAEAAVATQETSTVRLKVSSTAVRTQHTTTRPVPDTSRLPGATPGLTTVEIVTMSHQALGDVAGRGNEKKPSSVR

| Kd [µM] | Binder |
| --- | --- |
| 9.3 | GTTRLTRKRGLKL [[Peptide B] nLDL] |
| 7.7 | YKLQGTTRLTRKRGLKLATALS [[Peptide C] nLDL] |
| 3 | YKLEGTTRLTRKRGLKLATALS [[Peptide D] nLDL] |
| 15.2 | TGKRYRLKTLRTLKKTSLLEAA [[Peptide E] nLDL] |
